What was measured:
[1] = biological target: GST (glutathione-S-transferase alone) (Schistosoma japonicum (Blood fluke), UniProt P08515 = GST); assay: GST pull-down, SDS-PAGE and fluorography
full length BRCA1 = full length BRCA1 (human, UniProt P38398); assay: GST pull-down, SDS-PAGE and fluorography

B1: LexA-BRCA1-RF fusion construct (amino-terminal 100 amino acids of human BRCA1, wild type, fused to the LexA DNA-binding domain) (other)
chain: MDLSALRVEEVQNVINAMQKILECPICLELIKEPVSTKCDHIFCKFCMLKLLNQKKGPSQCPLCKNDITKRSLQESTRFSQLVEELLKIICAFQLDTGLE
[1]
  binding result: no binding

B2: GST-hBAP1(483-594 of SEQ ID NO: 2) fusion protein lacking the minimal interaction domain (other)
chain: QPSPTPSNESTDTASEIGSAFNSPLRSPIRSANPTRPSSPVTSHISKVLFGEDDSLLRVDCIRYNRAVRDLGPVISTGLLHLAEDGVLSPLALTEGGKGSSPSIRPIQGSQG
Full length BRCA1
  binding result: no binding

Source: patent US6307035, “BRCA1 associated polynucleotide (BAP-1) and uses therefor” (The Wistar Institute of Anatomy and Biology, dated 2001)
